In article PMC5493754, “Myosin 7 and its adaptors link cadherins to actin” (Nature Communications, 2017) one finds Kd data, which are given here for 5 molecules.

In assay [1] the target is YFP-Harmonin-a PDZ3c (human) (UniProt Q9Y6N9). Briefly: MST; YFP-fused partner constant at 100 nM, non-fluorescent protein titrated (16 two-fold dilutions); 20 mM Hepes pH 7.0, 100 mM NaCl, 1 mM EGTA, 0.5 mM TCEP, 0.05% Tween 20; Monolith NT.115.
The target of assay [2] is YFP-ANKS4B_(CEN-PBM) (human) (UniProt Q8N8V4). Described as above.
In assay [3] the target is YFP-SANS_(CEN-PBM) (UniProt Q495M9). Described as above.
Assay [4] deals with T1, Harmonin NPDZ1.PDZ2 (human, UniProt Q9Y6N9-1 1-301).
T1 construct: Harmonin-a1 (USH1C), human, N-terminal domain, PDZ1 and PDZ2, residues 1-301 of UniProt Q9Y6N9-1; source: E. coli BL21 (DE3) Rosetta, purified (Glutathione Sepharose 4B, size-exclusion chromatography)
T1 sequence (looked up): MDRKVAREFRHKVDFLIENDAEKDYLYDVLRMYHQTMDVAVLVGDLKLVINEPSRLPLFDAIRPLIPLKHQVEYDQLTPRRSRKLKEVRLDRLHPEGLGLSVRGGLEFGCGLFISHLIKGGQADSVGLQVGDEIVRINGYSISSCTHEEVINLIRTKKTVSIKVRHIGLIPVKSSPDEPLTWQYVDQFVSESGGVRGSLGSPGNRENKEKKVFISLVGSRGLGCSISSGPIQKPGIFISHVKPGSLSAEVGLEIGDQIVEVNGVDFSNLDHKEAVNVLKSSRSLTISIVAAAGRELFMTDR
The assay is described as above. The following applies: both partners purified.

Assay [5] addresses T2, Myosin 7b MF1.SH3 A1128E (human, UniProt Q6PIF6 958-1586, A1128E).
T2 construct: Myosin 7b, human, MF1.SH3, residues 958-1586 of UniProt Q6PIF6; also called M7b MF1.SH3 A1128E; source: E. coli, purified similarly as wild type (Histrap, CaptoQ, gel filtration)
T2 sequence: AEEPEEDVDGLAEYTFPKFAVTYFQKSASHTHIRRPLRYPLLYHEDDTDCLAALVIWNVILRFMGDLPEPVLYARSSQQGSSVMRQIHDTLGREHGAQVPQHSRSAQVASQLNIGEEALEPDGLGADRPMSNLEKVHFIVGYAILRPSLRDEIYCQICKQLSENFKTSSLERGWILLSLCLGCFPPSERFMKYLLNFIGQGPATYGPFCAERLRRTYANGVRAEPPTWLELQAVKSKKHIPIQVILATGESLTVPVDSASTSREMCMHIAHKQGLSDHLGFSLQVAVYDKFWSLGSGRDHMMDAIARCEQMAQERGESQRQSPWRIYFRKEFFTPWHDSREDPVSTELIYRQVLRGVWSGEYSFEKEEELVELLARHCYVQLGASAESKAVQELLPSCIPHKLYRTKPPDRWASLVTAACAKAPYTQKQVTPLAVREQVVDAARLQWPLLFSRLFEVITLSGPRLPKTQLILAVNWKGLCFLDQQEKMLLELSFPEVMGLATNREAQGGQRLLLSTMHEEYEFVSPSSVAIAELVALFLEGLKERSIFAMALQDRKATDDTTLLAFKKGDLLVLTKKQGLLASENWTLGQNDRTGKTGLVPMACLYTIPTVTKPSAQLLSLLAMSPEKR
The description is as above. The following applies: both partners purified.

The target in assay [6] is T3, Myosin 7b MF1.SH3 (human, UniProt Q6PIF6 958-1586).
T3 construct: also called M7b MF1.SH3; Myo7b MF1.SH3; source: E. coli (BL21-AI, BL21 (DE3) Rosetta or BL21-Gold (DE3)), purified (Histrap, CaptoQ, gel filtration)
T3 sequence: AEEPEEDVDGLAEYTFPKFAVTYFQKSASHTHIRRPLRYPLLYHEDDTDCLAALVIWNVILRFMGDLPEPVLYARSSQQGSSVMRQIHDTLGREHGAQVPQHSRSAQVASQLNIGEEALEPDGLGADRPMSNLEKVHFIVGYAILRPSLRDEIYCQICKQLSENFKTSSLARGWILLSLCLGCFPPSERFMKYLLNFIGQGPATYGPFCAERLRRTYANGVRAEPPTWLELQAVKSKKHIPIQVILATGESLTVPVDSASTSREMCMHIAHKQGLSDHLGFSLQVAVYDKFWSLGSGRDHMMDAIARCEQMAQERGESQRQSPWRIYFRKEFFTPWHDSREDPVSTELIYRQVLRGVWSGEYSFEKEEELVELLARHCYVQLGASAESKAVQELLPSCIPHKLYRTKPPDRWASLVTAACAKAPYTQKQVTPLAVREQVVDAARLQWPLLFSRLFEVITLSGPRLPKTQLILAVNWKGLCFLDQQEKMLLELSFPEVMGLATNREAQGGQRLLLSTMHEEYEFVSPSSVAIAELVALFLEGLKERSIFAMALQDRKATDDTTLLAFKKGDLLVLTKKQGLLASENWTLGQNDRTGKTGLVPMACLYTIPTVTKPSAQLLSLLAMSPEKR
Described as above. The settings on record: both partners purified.

Assay [7] deals with T4, Myosin 7a MF1.SH3 (human, UniProt Q13402-1 991-1692, residues 1523-1560 were deleted from MF1).
T4 construct: Myosin 7a, human, N-terminal MyTH4-FERM domain and SH3, residues 991-1692 of UniProt Q13402-1; residues 1523-1560 deleted; Thrombin site of the vector replaced by an SSG linker; also called M7a MF1.SH3; Myo7a MF1.SH3; source: E. coli (BL21-AI, BL21 (DE3) Rosetta or BL21-Gold (DE3)), purified (Histrap, CaptoQ, gel filtration)
T4 sequence (looked up): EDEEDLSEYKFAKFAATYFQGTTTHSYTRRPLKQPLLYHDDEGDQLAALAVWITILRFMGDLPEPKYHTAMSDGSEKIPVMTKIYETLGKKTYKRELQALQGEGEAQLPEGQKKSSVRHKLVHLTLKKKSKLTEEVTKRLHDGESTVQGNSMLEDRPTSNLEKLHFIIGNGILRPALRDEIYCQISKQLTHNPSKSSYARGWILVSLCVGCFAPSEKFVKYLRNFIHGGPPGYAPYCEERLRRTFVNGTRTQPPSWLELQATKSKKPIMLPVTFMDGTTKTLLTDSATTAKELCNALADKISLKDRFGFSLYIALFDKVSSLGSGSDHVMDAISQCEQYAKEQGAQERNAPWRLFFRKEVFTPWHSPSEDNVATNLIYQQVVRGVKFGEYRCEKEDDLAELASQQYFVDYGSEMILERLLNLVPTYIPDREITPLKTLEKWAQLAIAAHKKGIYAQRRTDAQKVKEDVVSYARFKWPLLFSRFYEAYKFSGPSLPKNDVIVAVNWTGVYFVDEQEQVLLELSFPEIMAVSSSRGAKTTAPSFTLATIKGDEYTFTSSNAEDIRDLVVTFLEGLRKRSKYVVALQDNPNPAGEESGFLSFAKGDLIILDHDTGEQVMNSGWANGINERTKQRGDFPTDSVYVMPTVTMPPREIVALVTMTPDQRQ
The assay is described as above. The following applies: both partners purified.

Assay [8] addresses T5, Full length (FL)-harmonin (harmonin-a1) (human, UniProt Q9Y6N9-1 1-552).
T5 construct: Harmonin-a1 (USH1C), human, residues 1-552 of UniProt Q9Y6N9-1; also called FL-harmonin-a; source: E. coli BL21 (DE3) Rosetta, purified (Glutathione Sepharose 4B, size-exclusion chromatography)
T5 sequence (looked up): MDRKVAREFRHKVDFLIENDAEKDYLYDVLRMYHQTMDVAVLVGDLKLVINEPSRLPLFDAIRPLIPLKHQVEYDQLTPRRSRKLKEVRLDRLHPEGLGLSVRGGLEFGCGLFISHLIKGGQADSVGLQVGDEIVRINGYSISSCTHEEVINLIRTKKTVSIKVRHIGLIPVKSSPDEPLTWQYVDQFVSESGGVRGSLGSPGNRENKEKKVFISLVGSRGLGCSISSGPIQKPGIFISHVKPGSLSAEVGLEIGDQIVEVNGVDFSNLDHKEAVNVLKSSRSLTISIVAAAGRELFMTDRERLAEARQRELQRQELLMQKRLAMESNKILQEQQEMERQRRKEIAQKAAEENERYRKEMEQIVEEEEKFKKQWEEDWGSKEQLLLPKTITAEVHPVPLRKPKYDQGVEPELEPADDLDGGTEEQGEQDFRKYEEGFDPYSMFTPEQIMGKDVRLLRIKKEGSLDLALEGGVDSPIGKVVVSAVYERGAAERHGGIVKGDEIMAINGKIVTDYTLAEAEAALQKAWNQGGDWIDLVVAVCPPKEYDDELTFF
Briefly: MST; as a1 but 150 mM NaCl (for FL-Harmonin-a); YFP-fused partner constant at 100 nM, non-fluorescent protein titrated. The following applies: both partners purified.

The term Kd denotes the concentration at which binding is half-saturated. Low values mean tighter binding, high ones weaker binding. With “Myosin 7b MF2 R1921E-F1923V (from UniProt Q6PIF6 1605-2116) (domain or fragment)”, in assay [1], the Kd is over 100 µM.
Take “Myosin 7b MF1.SH3 K1194E-K1195E R1171E-R1172E (from UniProt Q6PIF6 958-1586) (domain or fragment)”: the Kd in assay [2] came out at 3.1 µM; in assay [3] it was 6.6 µM.

B1: YFP-ANKS4B_(CEN-PBM) (domain or fragment, human, UniProt Q8N8V4 259-417, looked up)
chain: SVHHESILNRPGLGSIVFRRNRISSPEDISDSKREFGFKLPSELLQRQGASEADEGAADEEGEENGLKDDLPWDDDEVEWEEDVVDATPLEVFLLSQHLEEFLPIFKREQIDLEALLLCSDEDLQSIQMQLGPRKKVLNAINRRKQVLQQPGQLVDTSL
notes: ANKS4B, human, CEN regions, SAM domain and PBM, residues 259-417 of UniProt Q8N8V4; source: E. coli (BL21-AI, BL21 (DE3) Rosetta or BL21-Gold (DE3)), purified (Histrap, CaptoQ, gel filtration); not shown: YFP, N-terminal, kept
For B1, the Kd stood at 0.009 µM in assay [4], 13.1 ± 0.7 µM in assay [5], 4.3 ± 0.8 µM in assay [6] and 4.9 ± 0.7 µM in assay [7].

B2: YFP-SANS_(CEN-PBM) (domain or fragment, UniProt Q495M9 300-461, looked up)
chain: DSGHDSLFTRPGLGTMVFRRNYLSSGLHGLGREDGGLDGVGAPRGRLQSSPSLDDDSLGSANSLQDRSCGEELPWDELDLGLDEDLEPETSPLETFLASLHMEDFAALLRQEKIDLEALMLCSDLDLRSISVPLGPRKKILGAVRRRRQAMERPPALEDTEL
notes: The full-length SANS gene was synthesised; source: E. coli (BL21-AI, BL21 (DE3) Rosetta or BL21-Gold (DE3)), purified (Histrap, CaptoQ, gel filtration); not shown: YFP, N-terminal, kept
For B2, the Kd in assay [4] was found to be 0.017 µM; in assay [5], 18.2 ± 2.8 µM; in assay [6], 5.4 ± 1.6 µM; in assay [7], 0.13 ± 0.02 µM.

B3: YFP-FL-harmonin-ΔCter (domain or fragment, human, UniProt Q9Y6N9-1 1-542, looked up)
chain: MDRKVAREFRHKVDFLIENDAEKDYLYDVLRMYHQTMDVAVLVGDLKLVINEPSRLPLFDAIRPLIPLKHQVEYDQLTPRRSRKLKEVRLDRLHPEGLGLSVRGGLEFGCGLFISHLIKGGQADSVGLQVGDEIVRINGYSISSCTHEEVINLIRTKKTVSIKVRHIGLIPVKSSPDEPLTWQYVDQFVSESGGVRGSLGSPGNRENKEKKVFISLVGSRGLGCSISSGPIQKPGIFISHVKPGSLSAEVGLEIGDQIVEVNGVDFSNLDHKEAVNVLKSSRSLTISIVAAAGRELFMTDRERLAEARQRELQRQELLMQKRLAMESNKILQEQQEMERQRRKEIAQKAAEENERYRKEMEQIVEEEEKFKKQWEEDWGSKEQLLLPKTITAEVHPVPLRKPKYDQGVEPELEPADDLDGGTEEQGEQDFRKYEEGFDPYSMFTPEQIMGKDVRLLRIKKEGSLDLALEGGVDSPIGKVVVSAVYERGAAERHGGIVKGDEIMAINGKIVTDYTLAEAEAALQKAWNQGGDWIDLVVAVCPP
notes: Harmonin-a1 (USH1C), human, residues 1-542 of UniProt Q9Y6N9-1; also called ^YFPFL ΔCter; source: E. coli BL21 (DE3) Rosetta, purified (Glutathione Sepharose 4B, size-exclusion chromatography)
In turn, B3 came in with a Kd in assay [8] of 2.5 µM. In other words, the single-digit micromolar range.
